Measurements published in patent WO2003050283A2.
Where two headings read alike, the source gives them in different places.

B1: iMab100 (designed binder, not shown: small tags and cut ends)
chain: NVKLVEKGGNFVENDDDLKLTCRAEGYTIGPYCMGWFRQAPNDDSTNVATINMGGGITYYGDSVKERFDIRRDNASNTVTLSMDDLQPEDSAEYNCAGDSTIYASYYECGHGLSTGGYGYDSHYRGQGTDVTVSS
B2: iMab1200 (designed binder)
chain: HGLPMEKRGNFIVGQNCSLTCPASGYTIGPQCVFNCYFNSALAFSTENMGEWTLDMVFSDAGIYTMCAADSTIYASYYECGHGLSTGGYGYNPVSLGSFWDSP

Assays:
[1] = target: chicken lysozyme (chicken) (UniProt P00698); test: ELISA, lysozyme (100 ug/ml) coated well blocked with ELK; ~50 ng iMab per well, urea-purified; anti-VSV-HRP
Sequence of UniProt P00698 (P00698 19-147 limits assumed): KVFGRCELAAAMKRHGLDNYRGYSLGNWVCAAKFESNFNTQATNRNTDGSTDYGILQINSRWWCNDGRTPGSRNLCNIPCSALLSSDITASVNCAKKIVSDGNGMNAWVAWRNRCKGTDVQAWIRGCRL

[2] = target: chicken lysozyme (chicken) (UniProt P00698); test: ELISA, lysozyme (100 ug/ml) coated well blocked with ELK; ~50 ng iMab per well, purified by heat (60 C) solubilisation; anti-VSV-HRP
[3] = target: chicken lysozyme (chicken) (UniProt P00698)
[4] = target: ELK (3% skim milk powder solution); test: ELISA, ELK-coated control well; ~5 ng iMab per well, urea-purified; anti-VSV-HRP

Row | Binder | Absorbtion (450 nm) (absorbance (450 nm)) [1] | Absorbtion (450 nm) (absorbance (450 nm)) [2] | Absorbtion (450 nm) (absorbance (450 nm)) [3] | Absorbtion (450 nm) (absorbance (450 nm)) [4]
1 | B1 | 0.494 | 0.369 |  | 
2 | B2 |  |  | 0.061 | 0.04
